Consider two molecules from PMC4136552 (Journal of molecular recognition : JMR, 2011).

What is called Kd is the constant that tells how readily two partners part at equilibrium.

Test [1] has as its target erbB2 peptide (Homo sapiens) (UniProt P04626). The settings on record: cited from earlier work.
The target in test [2] is hGrb7-RA-PH domains (residues 103-341), hexa-histidine fusion (human, UniProt Q14451 103-341). The test can be described thus: ITC.
Sequence of hGrb7-RA-PH domains (residues 103-341), hexa-histidine fusion (Q14451 103-341): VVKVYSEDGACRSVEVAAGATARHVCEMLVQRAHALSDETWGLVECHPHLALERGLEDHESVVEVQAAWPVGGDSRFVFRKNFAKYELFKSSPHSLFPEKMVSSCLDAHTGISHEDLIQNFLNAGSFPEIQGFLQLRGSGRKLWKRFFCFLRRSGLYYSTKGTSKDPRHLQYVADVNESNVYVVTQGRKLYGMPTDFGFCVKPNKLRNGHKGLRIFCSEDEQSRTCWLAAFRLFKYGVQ

Regarding Grb7 SH2 (from UniProt Q14451), in test [1], the Kd is 2280 nM.

B1: human Grb7-SH2 domain (domain or fragment, UniProt Q14451 431-527, looked up)
chain: WFHGRISREESQRLIGQQGLVDGLFLVRESQRNPQGFVLSLCHLQKVKHYLILPSEEEGRLYFSMDDGQTRFTDLLQLVEFHQLNRGILPCLLRHCC
B1 showed a Kd in test [2] of 2800 nM.
